Laboratory results from the supplement of paper PMC9170038.

Tested on: K4 kissing-loop RNA reporter
Experiment: apparent KD of K4 kissing-loop reporter; higher = weaker reporter binding
Conditions: Eterna round: R107
Protocol: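 RNA-MaP round R107: designed RNA switches with theophylline, tryptophan, arginine or FMN aptamers are transcribed on-chip within common flanks. They are titrated with a labelled K4 kissing-loop RNA reporter in RNA-MaP buffer (100 mM Tris pH 7.5, 80 mM KCl, 4 mM MgCl2), without ligand or with the indicated ligand. Median apparent KD per design.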

[1] = input ligand: theophylline 20 uM
[2] = input ligand: tryptophan 2.4 mM
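Further: bound reporter read as fluorescence of individual clusters on recovered sequencing chips by microscopy, with normalized cluster intensities fitted with a binding model.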

AAGUGUUCUAGUGAUACCAGACAUUUCAAUUACAUUAAUAUAGCUAAGUGAUGUUUAGCAGUCCCUUGGCAGCACUAUUUCACUA [JR_SSTheophyB_Sub016]
apparent KD of K4 kissing-loop reporter (input ligand: FMN 200 uM): 130 nM
apparent KD of K4 kissing-loop reporter (input ligand: arginine 13.2 mM): 144 nM
apparent KD of K4 kissing-loop reporter (input ligand: none): 135 nM
apparent KD of K4 kissing-loop reporter [1]: 149 nM
apparent KD of K4 kissing-loop reporter [2]: 131 nM

GUUCGAUUCUGAGUGAUGUUGAGAAUUGAGAAGGAUAUCCAGAAAAGGAGAAGGUCUACGUCAUGCGCCUCGAUUUGCUAGCUGC [theeternabot_exclusion_KL_FMN_A_50]
apparent KD of K4 kissing-loop reporter (input ligand: FMN 200 uM): 835 nM
apparent KD of K4 kissing-loop reporter (input ligand: arginine 13.2 mM): 567 nM
apparent KD of K4 kissing-loop reporter (input ligand: none): 630 nM
apparent KD of K4 kissing-loop reporter [1]: 515 nM
apparent KD of K4 kissing-loop reporter [2]: 609 nM

UGAUUAAGCAGUGAUGUUGCAAGUAAUGAUACCAGUUAAGAAGAGAACCCUUGGCAGCAUAAAGUGCGCUCUGAUGAGUGUGCUU [whbob_SS_Theo_A_w53]
apparent KD of K4 kissing-loop reporter (input ligand: FMN 200 uM): 101 nM
apparent KD of K4 kissing-loop reporter (input ligand: arginine 13.2 mM): 153 nM
apparent KD of K4 kissing-loop reporter (input ligand: none): 123 nM
apparent KD of K4 kissing-loop reporter [1]: 169 nM
apparent KD of K4 kissing-loop reporter [2]: 95.6 nM

GUCUGCGUCUCGGCCGCCACUCACUAGUGAUGUUAGUAAGGAGCGACUAGAGAAGUCCAGUUGAUGAGGACCGGGAGACGCAAAA [Exclusion Tryptophan B GF4]
apparent KD of K4 kissing-loop reporter (input ligand: FMN 200 uM): 114 nM
apparent KD of K4 kissing-loop reporter (input ligand: arginine 13.2 mM): 84.3 nM
apparent KD of K4 kissing-loop reporter (input ligand: none): 95.7 nM
apparent KD of K4 kissing-loop reporter [1]: 85.8 nM
apparent KD of K4 kissing-loop reporter [2]: 169 nM

UAAGGGUUAUGUCCUCGGUGCGAAGAGCUCCGAGGACCGGUACGGCCGCCACUCGGAAGUUCUGAGUGAGGGAGUGAUGUUCCCU [Skye_Ex_TA]
apparent KD of K4 kissing-loop reporter (input ligand: FMN 200 uM): 312 nM
apparent KD of K4 kissing-loop reporter (input ligand: arginine 13.2 mM): 291 nM
apparent KD of K4 kissing-loop reporter (input ligand: none): 359 nM
apparent KD of K4 kissing-loop reporter [1]: 315 nM
apparent KD of K4 kissing-loop reporter [2]: 306 nM

AAGUGUGUGGCGGCCGCCACUAGAAUCCAGUGAUGUUGGAGAUAUCACGUAAGUGAUAUCCACCAUAGGACCGGGCCAUAUAGAA [Same State - Tryptophan B (Freestyle 13)]
apparent KD of K4 kissing-loop reporter (input ligand: FMN 200 uM): 1300 nM
apparent KD of K4 kissing-loop reporter (input ligand: arginine 13.2 mM): 758 nM
apparent KD of K4 kissing-loop reporter (input ligand: none): 559 nM
apparent KD of K4 kissing-loop reporter [1]: 428 nM
apparent KD of K4 kissing-loop reporter [2]: 483 nM

UCCUACGAGGUAACGUGGAUAUCUCGUUGCAAGGAUAUCUGGAAACAGAGAAGGUGCUACAUUAUCGGCAGUGAUGUUGCUGACC
apparent KD of K4 kissing-loop reporter (input ligand: FMN 200 uM): 687 nM
apparent KD of K4 kissing-loop reporter (input ligand: arginine 13.2 mM): 655 nM
apparent KD of K4 kissing-loop reporter (input ligand: none): 1010 nM
apparent KD of K4 kissing-loop reporter [1]: 759 nM
apparent KD of K4 kissing-loop reporter [2]: 529 nM

UUUUAUUAAUUCUUCUAGUGAUGUUAGAUACGAGGACCGGUACGGCCGCCACUCGCUUAUUGGUUUAUAAAUUUUAUAUUAUUUA [JR_SSTryptoA_Sub016]
apparent KD of K4 kissing-loop reporter (input ligand: FMN 200 uM): 292 nM
apparent KD of K4 kissing-loop reporter (input ligand: arginine 13.2 mM): 296 nM
apparent KD of K4 kissing-loop reporter (input ligand: none): 286 nM
apparent KD of K4 kissing-loop reporter [1]: 294 nM
apparent KD of K4 kissing-loop reporter [2]: 249 nM

CCAGAAUAAUGAAGAUGAUAAAUUACUGAAGGAGCGCAUAUAGUUGCAGGUAGGUCGCGGUGAAUAAGUAUAGUGAUGUUAUACC [SSArgA.Ad]
apparent KD of K4 kissing-loop reporter (input ligand: FMN 200 uM): 261 nM
apparent KD of K4 kissing-loop reporter (input ligand: arginine 13.2 mM): 209 nM
apparent KD of K4 kissing-loop reporter (input ligand: none): 256 nM
apparent KD of K4 kissing-loop reporter [1]: 260 nM
apparent KD of K4 kissing-loop reporter [2]: 255 nM

UUCUCUCAGGCACGCGAGUGAUGUUCGCGGCGAGGACCGGUACGGCCGCCACUCGCGCCUGAGAGAGGUUAUCAAAGAUAGCCUU [whbob_SS_tryp_A]
apparent KD of K4 kissing-loop reporter (input ligand: FMN 200 uM): 163 nM
apparent KD of K4 kissing-loop reporter (input ligand: arginine 13.2 mM): 92.3 nM
apparent KD of K4 kissing-loop reporter (input ligand: none): 94.7 nM
apparent KD of K4 kissing-loop reporter [1]: 186 nM
apparent KD of K4 kissing-loop reporter [2]: 208 nM

AGUGAUGUGGGAAGGAGCGGUAUAUGAAUUCAGUGAUGUUGAAGUGAUGCUGUAAUGAUGUGCCAGGUAGGUCGCCUAGAUGUUA [KL-XARG B26]
apparent KD of K4 kissing-loop reporter (input ligand: FMN 200 uM): 267 nM
apparent KD of K4 kissing-loop reporter (input ligand: arginine 13.2 mM): 161 nM
apparent KD of K4 kissing-loop reporter (input ligand: none): 244 nM
apparent KD of K4 kissing-loop reporter [1]: 171 nM
apparent KD of K4 kissing-loop reporter [2]: 187 nM

AGUGUGCAAAAGCACACUCAGUACAAGGACAAGGAUAUCUACUAAUAGAGAAGGUGUCCUUUCCUUAGUGAUGUUAAGGAACUGA [Omei KL FMN A SS D v3]
apparent KD of K4 kissing-loop reporter (input ligand: FMN 200 uM): 205 nM
apparent KD of K4 kissing-loop reporter (input ligand: arginine 13.2 mM): 500 nM
apparent KD of K4 kissing-loop reporter (input ligand: none): 617 nM
apparent KD of K4 kissing-loop reporter [1]: 657 nM
apparent KD of K4 kissing-loop reporter [2]: 595 nM

UGGGAUGGGCGAGGAUAUGGUGAGGUGGCGGUUGUUAGUGAUGUUGGUGAUGCUAGUGAUGUUUGUCCAGAAGGCGCGGGAUUUU [BDazzled]
apparent KD of K4 kissing-loop reporter (input ligand: FMN 200 uM): 218 nM
apparent KD of K4 kissing-loop reporter (input ligand: arginine 13.2 mM): 104 nM
apparent KD of K4 kissing-loop reporter (input ligand: none): 171 nM
apparent KD of K4 kissing-loop reporter [1]: 179 nM
apparent KD of K4 kissing-loop reporter [2]: 168 nM

GCCGUAGAUUGAAGGAGCGUUCUUACUGAUUACGGCAGCCGGAAGUGAUGUUUCCAGGUGGAACAGGUAGGUCGCAAUCUACGGC
apparent KD of K4 kissing-loop reporter (input ligand: FMN 200 uM): 104 nM
apparent KD of K4 kissing-loop reporter (input ligand: arginine 13.2 mM): 87.2 nM
apparent KD of K4 kissing-loop reporter (input ligand: none): 96 nM
apparent KD of K4 kissing-loop reporter [1]: 99.8 nM
apparent KD of K4 kissing-loop reporter [2]: 92 nM

GGGAGAAGUGCGGCCGCCACUGAGAAAGAAGAAGAAUAUAGUGAUGUUAUAUAGGAAAGGAAGAACAGGACCGGGCAUAAGAGGG [SSTryptB.A]
apparent KD of K4 kissing-loop reporter (input ligand: FMN 200 uM): 104 nM
apparent KD of K4 kissing-loop reporter (input ligand: arginine 13.2 mM): 148 nM
apparent KD of K4 kissing-loop reporter (input ligand: none): 126 nM
apparent KD of K4 kissing-loop reporter [1]: 131 nM
apparent KD of K4 kissing-loop reporter [2]: 99.1 nM

AAGGUCACUACUACAGUGAUGUUGUAGGAGCAGGAUAUGCAGAAAUGCAGAAGGGCUCGCUCCAAGUGACCGAAUGAAACAUUCA [Omei KL FMN A SS A v2]
apparent KD of K4 kissing-loop reporter (input ligand: FMN 200 uM): 368 nM
apparent KD of K4 kissing-loop reporter (input ligand: arginine 13.2 mM): 430 nM
apparent KD of K4 kissing-loop reporter (input ligand: none): 607 nM
apparent KD of K4 kissing-loop reporter [1]: 611 nM
apparent KD of K4 kissing-loop reporter [2]: 482 nM

AGGCACGAGCAAGGAUAUUGAGUAGAGUGAUGUUCUGCCUGGGUUGGCUCGGAAGAGCCUUCUCAGCGAGAAGGUGCUCGUGCCU [#2 Same State - FMN A Attempt #24 (HarryS)]
apparent KD of K4 kissing-loop reporter (input ligand: FMN 200 uM): 261 nM
apparent KD of K4 kissing-loop reporter (input ligand: arginine 13.2 mM): 475 nM
apparent KD of K4 kissing-loop reporter (input ligand: none): 785 nM
apparent KD of K4 kissing-loop reporter [1]: 542 nM
apparent KD of K4 kissing-loop reporter [2]: 556 nM

AUCAUUAGUUCGGCCGCCACUCCAGUGAUGUUGGAGGGACGCAUAAUAUGCGCGCGGCUAACUAGGAGGACCGGGAACUUUAGGC [Maonce]
apparent KD of K4 kissing-loop reporter (input ligand: FMN 200 uM): 82.8 nM
apparent KD of K4 kissing-loop reporter (input ligand: arginine 13.2 mM): 115 nM
apparent KD of K4 kissing-loop reporter (input ligand: none): 133 nM
apparent KD of K4 kissing-loop reporter [1]: 86.9 nM
apparent KD of K4 kissing-loop reporter [2]: 156 nM

AGGCACGAGCAAGGAUAUCGAGUAGAGUGAUGUUCUGCCUGGGUUGGCUCGAAAGGGCCUUCCCAGCGAGAAGGUGCUCGUGCCU [#2 Same State - FMN A Attempt #14 (HarryS)]
apparent KD of K4 kissing-loop reporter (input ligand: FMN 200 uM): 219 nM
apparent KD of K4 kissing-loop reporter (input ligand: arginine 13.2 mM): 325 nM
apparent KD of K4 kissing-loop reporter (input ligand: none): 300 nM
apparent KD of K4 kissing-loop reporter [1]: 1040 nM
apparent KD of K4 kissing-loop reporter [2]: 619 nM

CAUAUAUACACUAACCCGUACGGUAGUAAGCGAGGACCGGUACGGCCGCCACUCGAUCGUUUCGUGUUAGCACCAGUGAUGUUGG [theeternabot_sameState_KL_Trp_A_3]
apparent KD of K4 kissing-loop reporter (input ligand: FMN 200 uM): 461 nM
apparent KD of K4 kissing-loop reporter (input ligand: arginine 13.2 mM): 399 nM
apparent KD of K4 kissing-loop reporter (input ligand: none): 526 nM
apparent KD of K4 kissing-loop reporter [1]: 431 nM
apparent KD of K4 kissing-loop reporter [2]: 392 nM

AAGUACACGAUAGUGUACACCUAGUGAUGUUAGGAUAUGCAGAUAUGCAGAAGGAGCAAGUCAUCUGACAAUAGUCGGAUGACAA [FmnAX 7 #OpenEnded #K4Early]
apparent KD of K4 kissing-loop reporter (input ligand: FMN 200 uM): 315 nM
apparent KD of K4 kissing-loop reporter (input ligand: arginine 13.2 mM): 63.2 nM
apparent KD of K4 kissing-loop reporter (input ligand: none): 89.4 nM
apparent KD of K4 kissing-loop reporter [1]: 107 nM
apparent KD of K4 kissing-loop reporter [2]: 80.2 nM
